Results as given in PMC11419155 (bioRxiv, 2024).

B1: recombinant Fab 3H4 (Fab, V domains shown)
VH: QVQLKESGPGLVAPSQSLSISCTVSGFSLTTFGIHWIRQPPGKGLEWLGVIWAAGTTNYNSTLKSRLTITKDNSRSQVFLKMNSLQTYDTAIYYCVREDYDYFFGLDYWGQGTSVTVSS
VL: QAVVTQESALTTSPGETVTLTCRSSTGAVTTSNYASWVQEKPDHLFIGLIGGTNNRAPGVPARFSGSLIGDKAALTITGAQTDDEAIYFCALWFSNHWVFGGGTKLTVL
B2: recombinant Fab 3B4 (Fab, V domains shown)
VH: QVQLHQPGAELVKPGASVNLSCKASGYTFTSYWMHWVKQRPGQGLEWIGEINPSSGRANYNEKFKNKATLTVDKSSITAYMHLSSLTSEDSAVYYCHWDYYAMDYWGQGTSVTVSS
VL: DIVLTQSPATLSVTPGDSVSLSCRASQSISNNLHWYQQKSHESPRLLFKSASQSISGIPSRFSGSGSGTDFTLSINSVETEDFGMYFCQQTNSWPLTFGTGTKLDLK

Molecular target: recombinant HAstV1 capsid spike, histidine-tagged (Human astrovirus 1 (AAC34717.1), UniProt O12792)
Sequence (O12792 429-645): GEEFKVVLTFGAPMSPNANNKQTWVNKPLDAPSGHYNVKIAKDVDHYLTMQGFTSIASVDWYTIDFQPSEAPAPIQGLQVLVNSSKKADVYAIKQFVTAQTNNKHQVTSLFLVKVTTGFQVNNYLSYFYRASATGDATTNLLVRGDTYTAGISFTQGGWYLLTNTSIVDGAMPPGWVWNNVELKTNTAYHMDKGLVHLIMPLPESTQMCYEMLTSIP
Experiment: BLI

| Binder | Kd [nM] |
| --- | --- |
| B1 | 0.49 |
| B2 | 11.8 |
